Data on 1 molecule can be found in PMC5749160, “Disruption of an RNA-binding hinge region abolishes LHP1-mediated epigenetic repression”.

In this data set the target is T1, GST-LHP1 (Arabidopsis thaliana (Col-0 cDNA), UniProt Q946J8 1-445).
T1 sequence: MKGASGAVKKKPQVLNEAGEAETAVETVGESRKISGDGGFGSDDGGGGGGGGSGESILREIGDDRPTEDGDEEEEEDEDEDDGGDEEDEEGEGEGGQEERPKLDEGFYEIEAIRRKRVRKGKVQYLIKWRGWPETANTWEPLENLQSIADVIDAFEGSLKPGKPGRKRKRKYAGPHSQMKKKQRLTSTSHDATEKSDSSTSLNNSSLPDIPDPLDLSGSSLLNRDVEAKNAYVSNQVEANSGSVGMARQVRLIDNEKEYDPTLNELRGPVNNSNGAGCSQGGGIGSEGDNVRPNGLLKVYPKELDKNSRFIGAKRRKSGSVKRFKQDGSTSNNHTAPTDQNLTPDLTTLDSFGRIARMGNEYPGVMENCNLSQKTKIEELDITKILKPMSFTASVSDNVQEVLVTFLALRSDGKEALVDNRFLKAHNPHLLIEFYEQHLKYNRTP
Briefly: EMSA; EMSA: 20 mM HEPES-KOH pH 7.5, 100 mM KCl, 0.05% NP-40, 10 nM Cy5 probe (1 uL of 100 nM + 9 uL protein), 30 min room temperature; 1.6% TBE-agarose gel. To be noted: protein: recombinant; tags: N-terminal GST (pGEX-4T-1); label: 5' Cy5; single-stranded.

For CUCCUCCGGCGAUAAGUACGCCUUUUCCUUACCUGGGUUU (ssRNA) [FLC 40-nt ssRNA], the equilibrium dissociation constant (Kd) is ~200 nM.
